Results reported in PMC8050864.

How the values were obtained:
[1] = target: PFV IN(ΔCTD) intasome: full-length PFV IN(K120E) at the inner protomers, PFV IN(D273K, ΔCTD) at the outer protomers (prototype foamy virus); experiment: pull-down
[2] = target: FL PFV intasome (tetramer of full-length prototype foamy virus integrase bound to two viral DNA ends) (prototype foamy virus); experiment: pull-down

Substance “601 nucleosome treated with trypsin to remove the histone tails (from UniProt P04908 1-130; O60814 1-126; P68431 1-136; P62805 1-103) (complex)” has a percent of the lane's Coomassie signal in the TL H4 band on the beads [1] of 2.5% and a percent of the lane's Coomassie signal in the TL H4 band on the beads [2] of 11.2%.
